The text below walks through data of paper PMC12151457.

In this data set the target is Asp229 (UniProt position 204, GLPADDRVGDK). Put plainly: kinetics. To be noted: 25 °C, 100 mM NaCl, 10 mM HEPES.
Where [1] appears, read: free enzyme (the authors interpret the pH dependence of kcat/KM as ionisation of the catalytic Asp in the substrate-free enzyme).

In general, pKa refers to the negative logarithm of the acid dissociation constant. Consider “V4 Kemp eliminase (GNCA4-12 ancestral beta-lactamase scaffold with extra C-terminal polypeptide segment) (synthetic construct (reconstructed ancestral class A beta-lactamase, GNCA node, last common ancestor of various Gram-negative bacteria); W229D;F290W;I250V;R256H;L260F;V261L;H291V;insertion of extra C-terminal polypeptide segment (sequence not stated))”, for which the pKa entry under setting [1] is listed as “about 7”.

With “V4-4 Kemp eliminase (V4 + L49I/G58Q/R230I/A257P/A262C) (synthetic construct (reconstructed ancestral class A beta-lactamase, GNCA node, last common ancestor of various Gram-negative bacteria); W229D;F290W;I250V;R256H;L260F;V261L;H291V;L49I;G58Q;R230I;A257P;A262C;insertion of extra C-terminal polypeptide segment (sequence not stated))”, the pKa result under setting [1] is “about 7”.

In the case of “V4 Kemp eliminase (GNCA4-12 ancestral beta-lactamase-based de novo Kemp eliminase with an extra C-terminal polypeptide segment) (synthetic construct (reconstructed ancestral GNCA node beta-lactamase, last common ancestor of various Gram-negative bacteria); W229D;F290W;I250V;R256H;L260F;V261L;H291V;C-terminal polypeptide segment insertion)”, under “free enzyme (the authors state that kcat/KM reports ionisation in the substrate-free enzyme)”, the pKa stood at 6.7.
